Laboratory results: patent US20210253718A1, “FRIZZLED5 PROTEIN-BINDING AGENTS” (Modmab Therapeutics Corporation, priority 2016, published 2021)

T1: FZD3 CRD (Homo sapiens, UniProt Q9NPG1)
T1 construct: CRD of FZD1, FZD2, FZD3, FZD4, FZD5, FZD6, FZD7, FZD8, FZD9 or FZD10; GPI anchor signal (C); expressed in transfected cells; host or cells: CHO cells, lentiviral pLenti-puro
T1 sequence (Q9NPG1 23-136 limits assumed): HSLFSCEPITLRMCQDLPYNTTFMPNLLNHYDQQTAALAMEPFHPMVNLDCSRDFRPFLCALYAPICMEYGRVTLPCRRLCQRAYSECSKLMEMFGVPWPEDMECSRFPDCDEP

T2: FZD4 CRD (Homo sapiens, UniProt Q9ULV1)
T2 construct: E42-V167; GPI anchor signal (C); expressed in transfected cells; host or cells: CHO cells, lentiviral pLenti-puro
T2 sequence (Q9ULV1 42-167): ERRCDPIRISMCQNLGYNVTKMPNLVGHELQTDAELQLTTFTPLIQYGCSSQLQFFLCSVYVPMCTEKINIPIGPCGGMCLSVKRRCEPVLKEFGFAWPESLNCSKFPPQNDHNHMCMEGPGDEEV

T3: FZD9 CRD (Homo sapiens, UniProt O00144)
T3 construct: G35-A161; GPI anchor signal (C); expressed in transfected cells; host or cells: CHO cells, lentiviral pLenti-puro
T3 sequence (O00144 35-161): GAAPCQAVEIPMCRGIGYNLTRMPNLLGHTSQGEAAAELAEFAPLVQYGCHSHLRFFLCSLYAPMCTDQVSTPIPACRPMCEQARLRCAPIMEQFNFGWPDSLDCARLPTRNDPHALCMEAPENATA

T4: FZD10 CRD (Homo sapiens, UniProt Q9ULW2)
T4 construct: 30-156; GPI anchor signal (C); expressed in transfected cells; host or cells: CHO cells, lentiviral pLenti-puro
T4 sequence (Q9ULW2 30-156): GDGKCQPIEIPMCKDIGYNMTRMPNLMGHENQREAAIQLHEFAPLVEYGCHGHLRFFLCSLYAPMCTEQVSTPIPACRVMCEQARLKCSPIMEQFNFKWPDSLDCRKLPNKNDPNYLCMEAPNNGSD


What was measured:
Experiment in all cases: Immunofluorescence of anti-FZD5 Fab binding to CHO cells overexpressing Frizzled CRD
Set-up in all cases: key: −: no binding; +: very weak binder; ++: weak binder; +++: good binder; ++++: very good binder
[1] = biological target: T1, FZD3 CRD
In short: (§1)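 CHO cell lines each displaying a myc-tagged Frizzled CRD on the plasma membrane via GPI anchor. Recombinant anti-FZD5 Fab binding detected by immunofluorescence and flow cytometry.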

[2] = biological target: T2, FZD4 CRD
In short: as §1

[3] = biological target: T3, FZD9 CRD
In short: as §1

[4] = biological target: T4, FZD10 CRD
In short: as §1

[5] = biological target: T5, FZD1 CRD (Homo sapiens, UniProt Q9UP38)
T5 construct: D112-P238; GPI anchor signal (C); expressed in transfected cells; host or cells: CHO cells, lentiviral pLenti-puro
In short: as §1

Row | Molecule | Immunofluorescence binding, Frizzled CRD overexpressed on CHO cells: FZD3 [1] | Immunofluorescence binding, Frizzled CRD overexpressed on CHO cells: FZD4 [2] | Immunofluorescence binding, Frizzled CRD overexpressed on CHO cells: FZD9 [3] | Immunofluorescence binding, Frizzled CRD overexpressed on CHO cells: FZD10 [4] | Immunofluorescence binding, Frizzled CRD overexpressed on CHO cells: FZD1 [5]
1 | Fab-2913: anti-FZD5 Fab with antibody variable region Fv-2913; CDR SEQ ID NOs: 35, 36, 52, 91, 128, 165 (antibody, V domains shown) VH: EVQLVESGGGLVQPGGSLRLSCAASGFNISYSSIHWVRQAPGKGLEWVASIYPYSSSTSYADSVKGRFTISADTSKNTAYLQMNSLRAEDTAVYYCARYGYYGLDYWGQGTLVTVSS VL: DIQMTQSPSSLSASVGDRVTITCRASQSVSSAVAWYQQKPGKAPKLLIYSASSLYSGVPSRFSGSRSGTDFTLTISSLQPEDFATYYCQQWGVSHYLFTFGQGTKVEIK | − | − | − | − | ++
2 | Fab-2912: anti-FZD5 Fab with antibody variable region Fv-2912; CDR SEQ ID NOs: 35, 36, 51, 90, 127, 164 (antibody, V domains shown) VH: EVQLVESGGGLVQPGGSLRLSCAASGFNISYSYIHWVRQAPGKGLEWVASISSSSGYTSYADSVKGRFTISADTSKNTAYLQMNSLRAEDTAVYYCARTVRGSKKPYFSGWAMDYWGQGTLVTVSS VL: DIQMTQSPSSLSASVGDRVTITCRASQSVSSAVAWYQQKPGKAPKLLIYSASSLYSGVPSRFSGSRSGTDFTLTISSLQPEDFATYYCQQFYFPYLITFGQGTKVEIK | − | ++ | − | − | +
3 | Fab-2915: anti-FZD5 Fab with antibody variable region Fv-2915; CDR SEQ ID NOs: 35, 36, 54, 93, 130, 166 (antibody, V domains shown) VH: EVQLVESGGGLVQPGGSLRLSCAASGFNIYYYSMHWVRQAPGKGLEWVASIYSSYGYTSYADSVKGRFTISADTSKNTAYLQMNSLRAEDTAVYYCARGYHYYPYYSGLDYWGQGTLVTVSS VL: DIQMTQSPSSLSASVGDRVTITCRASQSVSSAVAWYQQKPGKAPKLLIYSASSLYSGVPSRFSGSRSGTDFTLTISSLQPEDFATYYCQQAYYHSLITFGQGTKVEIK | − | − | − | − | ++
4 | Fab-2914: anti-FZD5 Fab with antibody variable region Fv-2914; CDR SEQ ID NOs: 35, 36, 53, 92, 129, 162 (antibody, V domains shown) VH: EVQLVESGGGLVQPGGSLRLSCAASGFNIYYSYMHWVRQAPGKGLEWVASIYPSSSSTSYADSVKGRFTISADTSKNTAYLQMNSLRAEDTAVYYCARGAMDYWGQGTLVTVSS VL: DIQMTQSPSSLSASVGDRVTITCRASQSVSSAVAWYQQKPGKAPKLLIYSASSLYSGVPSRFSGSRSGTDFTLTISSLQPEDFATYYCQQWYYGSLITFGQGTKVEIK | − | − | − | − | ++
